Reference: publication PMC8809534, “Gating choreography and mechanism of the human proton-activated chloride channel ASOR” (Science Advances, 2022)

Target: the molecule itself
Assay: cryo-EM structure; single-particle cryo-EM of purified ASOR at pH 7.5 (digitonin, GDN or saposin nanodiscs) and at pH 4.5 (GDN or saposin nanodiscs; sodium citrate added); 5 mM Hepes, 150 mM NaCl; C3 symmetry; resting, activated and desensitized conformations

B1: human ASOR (TMEM206) proton-activated chloride channel (natural protein)
chain: not shown
notes: full-length human ASOR (TMEM206), UniProt Q9H813; codon-optimised synthetic cDNA; GFP tag removed with PreScission protease; residues left by the cleavage site are not described; also called PAC; acid-sensitive outwardly rectifying channel; not shown: GFP, C-terminal, cleaved
stoichiometry N: 3
